Patent publication US9481870B2, “Nucleic acid encoding a polypeptide having aminotransferase activity, vectors and host cells comprising the nucleic acid” (KANEKA CORPORATION, priority 2010, dated 2016)

Assay: Transamination activity assay (activity assay A), activity for (S)-1-phenethylamine
Format: biochemical
Conditions: (S)-1-phenethylamine 25 mM, sodium pyruvate 25 mM, pH 8.0, 30° C., 5 minutes
Protocol: The above transamination activity can be determined by the following method. Specifically, first, a purified polypeptide is added to a substrate solution having the following composition so that the total volume is 1 mL. After 5 minutes of reaction at 30° C., 0.05 mL of 6N hydrochloric acid is added to stop the reaction. The reaction solution is then analyzed by HPLC under the following conditions and then the quantity of the thus generated acetophenone is determined (hereinafter, referred to as “activity assay A”).
The transamination activity of purified TPM was examined under the following activity assay conditions. Specifically, purified TPM was added to a substrate solution with the composition given below to a total amount of 1 mL. After 5 minutes of reaction at 30° C., 0.05 mL of 6N hydrochloric acid was added to stop the reaction. HPLC analysis was conducted under the following conditions.
[High Performance Liquid Chromatography (HPLC) Analysis Conditions] • Column: Wakosil-II 5C18 RS (Wako Pure Chemical Industries, Ltd.) • Eluent: 10 mM potassium phosphate buffer (pH5.3): acetonitrile=3:2 • Flow rate: 1 mL/minute • Detection: 241 nm • (1) Activity for (S)-1-phenethylamine: […]

B1: TPM: purified aminotransferase polypeptide from Pseudomonas sp. MV37, about 50,000 molecular weight, amino acid sequence SEQ ID NO: 1 (protein, listed as Pseudomonas sp.)
chain: MNHLEKMLELDRNHLIHPHLPKSEFSRTIFARGKGCKLWDTEGREYLDATGGLWLAQIGHGREEIAEVAARQMKQLEYFTCFWDFSNERAIELAEKLARLAPGDLEMSFFTSGGSEGDDAAIKTARYYHSQRGEPKRTWILSRNNAYHGLAYGGGTATGFPELRDGMGPGLPHVAYLTQPNAYRHYYFDGQNPTDFCVSELEKMIASIGAENIAAMIAEPIMGVGGMVPPPVDYWPRMSQVLKKNGILLIFDEVVSAFGRSGHWFAAEKYGVIPDIMVTAKGISSGYIPLGAVIMSRDVADTVREGHGYPLGYTYSGHPVACAVALENLRILEDEDLINRSNHMGTYIAEQLTALRDNPCVGEVRQAGMGIGIELVTDKESRQPLPDAALVIPDIIREETGVIVRISNATNLCMSPPLTMSREEADRAVEAVCSVLSRVKPDGKV
Q: Which “Transamination activity for (S)-1-phenethylamine” value does the source give for B1 here?
A: 11.8 U/mg
